Patent KR20180006452A (dated 2018)
Positions count from the first letter of the chain named. Names may count otherwise. Each block holds one binder with its values, some of them ahead of it.

Tests used:
가용형 인간 FcγRIIb = target: T1, 가용형 인간 FcγRIIb (human, UniProt P31994 43-217, limits assumed); assay: SPR (BIACORE T200), hFcγRIIb captured by anti-His antibody, IgE-antibody complex as analyte, pH 7.4, 25C
T1 construct: also called hFcγRIIb; hFcγRII2b; not shown: His tag
T1 sequence (looked up): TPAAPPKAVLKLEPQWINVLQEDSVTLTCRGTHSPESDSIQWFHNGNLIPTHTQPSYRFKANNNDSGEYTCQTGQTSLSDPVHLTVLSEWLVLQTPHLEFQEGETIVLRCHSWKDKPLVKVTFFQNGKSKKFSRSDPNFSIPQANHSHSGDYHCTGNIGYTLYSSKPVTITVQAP

가용형 인간 FcγRIa = target: T2, 가용형 인간 FcγRIa (human, UniProt P12314 16-292, limits assumed); assay: SPR (BIACORE T200), antibody captured on rProtein L, soluble FcγR as analyte, 20C
T2 construct: also called hFcγRIa; not shown: His tag

가용형 인간 FcγRIIIa = target: T3, 가용형 인간 FcγRIIIa (human, UniProt P08637 17-208, limits assumed); assay: as above
T3 construct: also called hFcγRIIIa; not shown: His tag

가용형 필리핀 원숭이 FcγRIIIa = target: T4, 가용형 필리핀 원숭이 FcγRIIIa (필리핀 원숭이 (cynomolgus monkey), UniProt Q8SPW2 17-208, limits assumed); assay: as above
T4 construct: also called cynoFcγRIIIa; not shown: His tag
T4 sequence (Q8SPW2 17-208 limits assumed): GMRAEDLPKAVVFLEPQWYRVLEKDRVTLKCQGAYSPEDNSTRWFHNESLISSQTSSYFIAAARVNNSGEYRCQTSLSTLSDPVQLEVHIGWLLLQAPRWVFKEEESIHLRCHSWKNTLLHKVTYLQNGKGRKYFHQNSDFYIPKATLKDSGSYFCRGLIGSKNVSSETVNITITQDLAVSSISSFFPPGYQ

T2 sequence (P12314 16-292 limits assumed): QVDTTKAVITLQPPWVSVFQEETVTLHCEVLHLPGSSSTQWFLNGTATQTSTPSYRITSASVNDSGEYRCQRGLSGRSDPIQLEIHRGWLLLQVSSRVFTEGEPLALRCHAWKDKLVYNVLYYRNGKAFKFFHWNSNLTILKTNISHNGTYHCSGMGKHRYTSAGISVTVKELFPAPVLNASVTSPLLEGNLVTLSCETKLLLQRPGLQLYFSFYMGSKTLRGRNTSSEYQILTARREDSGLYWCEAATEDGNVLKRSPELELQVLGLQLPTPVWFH
T3 sequence (P08637 17-208 limits assumed): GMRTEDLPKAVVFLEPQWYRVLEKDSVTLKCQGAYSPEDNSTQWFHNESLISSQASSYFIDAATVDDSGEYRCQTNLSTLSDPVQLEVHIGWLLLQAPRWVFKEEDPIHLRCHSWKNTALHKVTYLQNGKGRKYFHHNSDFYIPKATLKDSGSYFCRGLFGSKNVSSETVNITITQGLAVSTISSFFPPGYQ

binding result (가용형 인간 FcγRIIb): binds
B1: Ab1H-P1394m/Ab1L (antibody, human IgG1, kappa)
heavy: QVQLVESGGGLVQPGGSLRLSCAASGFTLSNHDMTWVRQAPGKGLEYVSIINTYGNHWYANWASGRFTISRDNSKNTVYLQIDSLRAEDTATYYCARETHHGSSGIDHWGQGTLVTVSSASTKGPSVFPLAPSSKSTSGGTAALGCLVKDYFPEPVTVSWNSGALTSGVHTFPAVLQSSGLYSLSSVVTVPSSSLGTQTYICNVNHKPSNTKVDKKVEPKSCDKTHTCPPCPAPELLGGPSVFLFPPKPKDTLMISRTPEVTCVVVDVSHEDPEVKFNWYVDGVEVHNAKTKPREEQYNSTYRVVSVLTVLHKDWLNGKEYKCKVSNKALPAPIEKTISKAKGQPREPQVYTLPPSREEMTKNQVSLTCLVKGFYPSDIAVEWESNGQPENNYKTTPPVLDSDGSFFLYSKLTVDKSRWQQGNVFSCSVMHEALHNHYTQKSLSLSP
light: DIQMTQSPSSVSASVGDRVTITCQASESIYSGLAWYQQKPGQPPKLLIYDHSTLASGVPSRFSGSGSGTEYALTISSLQPEDFATYYCQHADYAHHSDNVFGGGTKVEIKRTVAAPSVFIFPPSDEQLKSGTASVVCLLNNFYPREAKVQWKVDNALQSGNSQESVTEQDSKDSTYSLSSTLTLSKADYEKHKVYACEVTHQGLSSPVTKSFNRGEC
notes: Ab1H with Q311K (EU numbering)

binding result (가용형 인간 FcγRIa): no binding
binding result (가용형 인간 FcγRIIIa): no binding
binding result (가용형 필리핀 원숭이 FcγRIIIa): no binding
B2: H1009/L395-F1886s (antibody)
heavy: QVQLVESGGGLVQPGGSLRLSCAASGFTFSDYYLSWVRQAPGKGLEWVGLIRNKDNYHTPEYSASVKGRFTISRDDSKNSLYLTMSDLKTEDTAVYYCARENHRYDVELAYWGQGTLVTVSSASTKGPSVFPLAPSSKSTSGGTAALGCLVKDYFPEPVTVSWNSGALTSGVHTFPAVLQSSGLYSLSSVVTVPSSSLGTQTYICNVNHKPSNTKVDKKVEPKSCDKTHTCPPCPAPELRRGPKVFLFPPKPKDTLMISRTPEVTCVVVDVSHEDPEVKFNWYVDGVEVHNAKTKPREEQYNSTYRVVSVLTVLHQDWLNGKEYKCKVSNKALPAPIEKTISKAKGQPREPQVYTLPPSREEMTKNQVSLTCLVKGFYPSDIAVEWESNGQPENNYKTTPPVLDSDGSFFLYSKLTVDKSRWQQGNVFSCSVLHEALHAHTTRKELSLSP
light: DIQMTQSPSSLSASVGDRVTITCRASEIIYSYLAWYQQKPGKAPKLLIYKAKTHADGVPSRFSGSGSGTDFTFTISSLQPEDIATYYCKHHFGFPRTFGQGTKVEIKRTVAAPSVFIFPPSDEQLKSGTASVVCLLNNFYPREAKVQWKVDNALQSGNSQESVTEQDSKDSTYSLSSTLTLSKADYEKHKVYACEVTHQGLSSPVTKSFNRGEC
notes: also called H1009-F1886s/L395-k0MT

binding result (가용형 인간 FcγRIa): no binding
binding result (가용형 인간 FcγRIIIa): no binding
binding result (가용형 필리핀 원숭이 FcγRIIIa): no binding
B3: H1009/L395-F1974m (antibody)
heavy: B2 heavy with K244S, A332G, A335S, P336S
light: B2 light
notes: also called H1009-F1974m/L395-k0MT
